Experimental findings from patent US20260007697A1 (FUNDACI N PARA LA INVESTIGACI N M DICA APLICADA, published 2026) are described below.

The target in assay [1] is recombinant mouse EDA protein (extra-domain A of fibronectin), His-tagged (mouse) (UniProt P11276). Put plainly: flow cytometry, CD8+ control PSMA CAR-T cells incubated with soluble mouse His-EDA (50 µg/ml per legend paragraph 32), anti-His-APC; light grey histogram, lower number of the panel mouseEDA, CD8 row [cont.) C].
Assay [2] has as its target recombinant human EDA protein (extra-domain A of fibronectin), His-tagged (human) (UniProt P02751). Nature of the assay: flow cytometry, CD4+ control PSMA CAR-T cells incubated with soluble human His-EDA (50 µg/ml per legend paragraph 32), anti-His-APC; light grey histogram, lower number of the panel humanEDA, CD4 row [cont.) C].
The target is the same in assay [3]. Put plainly: flow cytometry, CD8+ control PSMA CAR-T cells incubated with soluble human His-EDA (50 µg/ml per legend paragraph 32), anti-His-APC; light grey histogram, lower number of the panel humanEDA, CD8 row [cont.) C].
The target of assay [4] is recombinant mouse EDA protein (extra-domain A of fibronectin), His-tagged (mouse) (UniProt P11276). Nature of the assay: flow cytometry, CD4+ control PSMA CAR-T cells incubated with soluble mouse His-EDA (50 µg/ml per legend paragraph 32), anti-His-APC; light grey histogram, lower number of the panel mouseEDA, CD4 row [cont.) C].
Assay [5] addresses T1, recombinant mouse EDA protein (extra-domain A of fibronectin), His-tagged (mouse, UniProt P11276 1721-1810).
T1 construct: Recombinant protein carrying a His tag; also called murine EDA; EDA (m)
Put plainly: Bio-Layer Interferometry (Octet N1), scFv F8 on AR2G biosensors, soluble mEDA at 1, 2, 4 and 8 uM; table column Kd (1/s) [cont.) E]. An excerpt:
(§1) A DNA sequence coding for the scFv recombinant antibody fragment F8 (Rybak J N et al., 2007) was cloned in pET20b plasmid (Novagen), which enables expression of fusion proteins carrying six histidine residues at the carboxyl terminus. The resulting plasmid was transfected into BL21(DE3) cells for the expression of the recombinant scFv which was purified by affinity chromatography using protein A Sepharose (Amersham Biosciences) according to the manufacturer's instructions. Purified antibody fragments were analyzed by Coomassie and Western blot using anti-His antibodies. Recognition of EDA protein by the purified scFv F8 fragment was tested by ELISA using plates coated with recombinant EDA protein produced as described previously (Lasarte J J et al., 2007). The equilibrium dissociation constant (KD) of scFv F8 to soluble human and mouse EDAs was calculated by Bio-Layer Interferometry (BLI) using an Octet N1 (Sartorius) (FIG. 13). The scFv F8 was coated to the AR2G Biosensors (Fortébio) following manufacturer's instructions.

Assay [6] deals with T2, recombinant human EDA protein (extra-domain A of fibronectin), His-tagged (human, UniProt P02751 1722-1811).
T2 construct: Recombinant protein carrying a His tag; also called hEDA; EDA (h)
T2 sequence (P02751 1722-1811 limits assumed): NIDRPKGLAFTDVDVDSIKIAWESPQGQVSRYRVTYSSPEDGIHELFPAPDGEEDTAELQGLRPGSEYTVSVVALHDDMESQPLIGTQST
Put plainly: Bio-Layer Interferometry (Octet N1), scFv F8 on AR2G biosensors, soluble hEDA at 1, 2, 4 and 8 uM; table column Kd (1/s) [cont.) E].
Text: as §1

For assay [7], the target named is T1, recombinant mouse EDA protein …. Nature of the assay: Bio-Layer Interferometry (Octet N1), scFv F8 on AR2G biosensors, soluble EDA. As for the experimental part:
as §1, with “The” for “A DNA sequence coding for the scFv recombinant antibody fragment F8 (Rybak J N et al., 2007) was cloned in pET20b plasmid (Novagen), which enables expression of fusion proteins carrying six histidine residues at the carboxyl terminus. The”
(§2) To evaluate the functionality of the CAR construct, EDA CAR-T cells were cultured in EDA coated plates for 48 h. Both CD4+ and CD8+ EDA CAR-T, but not PSMA CAR-T cells produced high amounts of IFN-γ (FIG. 3D) and proliferated in response to EDA (FIG. 3E). […] This discrepancy could be due to the methodological differences between assays. Indeed, in the binding experiments EDA proteins are added in solution and bind to the CAR-T cells directly. […]

Assay [8] concerns the target T2, recombinant human EDA protein …. The assay is described as above. As for the experimental part: as §1, with “The” for “A DNA sequence coding for the scFv recombinant antibody fragment F8 (Rybak J N et al., 2007) was cloned in pET20b plasmid (Novagen), which enables expression of fusion proteins carrying six histidine residues at the carboxyl terminus. The”
as §2

Assay [9] has as its target T1, recombinant mouse EDA protein …. Put plainly: IFN-gamma release (ELISA) by CAR-T cells on EDA-coated plates, 48 h (functional read-out, not direct binding). As for the experimental part:
Also CAR-T cells were plated for 24 h in the presence of irradiated PM299L-EDA and PM299L-Thy1.1 cells. The number of IFN-γ producing cells was measured by ELISPOT as described by Lozano et al. (Lozano T et al., 2019). CAR-T cell proliferation and IFN-γ production were measured by 3H-thymidine incorporation (0.5 μCi per well) and ELISA, respectively, as described by Casares et al. (Casares N et al., 2010). In some cases, CAR-T cell proliferation was measured by Cell trace violet (CTV) dilution assay; Lymphocytes were incubated with the dye (5 μM) for 15 minutes at 37° C. and washed with RPMI 10% FBS. 8×10⁵ labelled lymphocytes were plated and co-incubated with PM299L-EDA^high and PM299L-Thy1.1 tumor cells at a ratio of 1:1 for 72 hours at 37° C. Subsequently, the proliferating population (measured by CTV dilution) was analyzed within GFP+ lymphocytes. The proliferation index was calculated as the ratio between proliferating cells in the presence of tumor cells expressing EDA (PM299L-EDA^high) and the number of proliferating cells in the presence of tumor cells not expressing EDA (PM299L. Thy1.1) at the end of the co-culture.
EDA CAR-T cells were generated by retroviral transduction of CD4⁺ or CD8⁺ T cells with the corresponding retrovirus. Five days after infection, T cells were analyzed by flow cytometry. […] IFN-g released to the culture supernatant was measured by ELISA.

T1 sequence (P11276 1721-1810 limits assumed): as the sequence (P02751 1722-1811 limits assumed) above, with H44R, E54D, T87I counted along it
Chain of recombinant mouse EDA protein (extra-domain A of fibronectin), His-tagged (mouse) (P11276 1721-1810 limits assumed): as the sequence (P02751 1722-1811 limits assumed) above, with H44R, E54D, T87I counted along it
Chain of recombinant human EDA protein (extra-domain A of fibronectin), His-tagged (human) (P02751 1722-1811 limits assumed): as the sequence (P02751 1722-1811 limits assumed) above

Take “PSMA CAR (anti-human PSMA scFv from mouse hybridoma J591 in the murine 4-1BB-CD3zeta cassette) on mouse T cells”: the MFI (mean fluorescence intensity) came to 46 in [1], 269 in assay [2], 203 in assay [3] and 49 in [4].

B1: anti-EDA F8 scFv (purified recombinant antibody fragment) (scFv)
scFv: EVQLLESGGGLVQPGGSLRLSCAASGFTFSVMKMSWVRQAPGKGLEWVSAISGSGGSTYYADSVKGRFTISRDNSKNTLYLQMNSLRAEDTAVYYCAKSTHLYLFDYWGQGTLVTVSSGGGGSGGGGSGGGGSGGGGSEIVLTQSPGTLSLSPGERATLSCRASQSVSNAFLAWYQQKPGQAPRLLIYGASSRATGIPDRFSGSGSGTDFTLTISRLEPEDFAVYYCQQMRGRPPTFGQGTKVEIKHHHHHH
notes: Expressed in E. coli BL21(DE3) from pET20b and purified on protein A Sepharose; also called scFv F8; scFv (F8)
As for B1, the dissociation rate constant (koff) in assay [5] turned out to be 0.000342 s⁻¹; in assay [6] it was 0.000532 s⁻¹. Besides, the Kd amounted to 99.5 nM in [7] and 77.6 nM in assay [8].

B2: chimeric EDA CAR with anti-EDA C27 scFv (VH/VL of antibody 27A12.70) in the murine 4-1BB-CD3zeta cassette, on mouse T cells (other)
chain: DVQLQESGPDLVKPSQSLSLTCTVTGYSITSGYSWHWIRQFPGNKLEWMGYIHYSGIANYNPSLKSRISITRDTSKNHFFLQLNSVTTEDTATYYCATEKTGFFDYWGQGTTLTVSSGGGGSGGGGSGGGGSGGGGSDVVMTQTPLSLPVSLGDQASISCRSSQSLVHSNGNTYLHWYLQKPGQSPKLLIYKVSNRFSGVPDRFSGSGSGTDFTLKISRVEAEDLGVYFCSQSAHVPPTFGGGTKLEIKR
notes: also called C27 EDA CAR-T; clone C27; not shown: limits on that entry
For B2, in assay [9], the binding result is given as “no binding (tested: 5 µg/ml coated (FIG. 14 legend))”.
